We go through four substances from article PMC5463365, “Assembly and use of high-density recombinant peptide chips for large-scale ligand screening is a practical alternative to synthetic peptide libraries” (BMC Genomics, 2017).

Experiment [1] has as its target T1, Streptavidin (Streptomyces avidinii, UniProt P22629).
T1 construct: purchased ForteBio
Put plainly: Recombinant peptide chip screen with HRP- or Europium-labeled Streptavidin. The format is binding. Particulars: for effect of dimerisation on chip signal/affinity: 12 glycine linker spaced dimer versus monomer, HRP-Streptavidin signal. As to the method:
Competent E. coli One Shot® BL21 Star™ (DE3) cells (Thermo Fisher Scientific) carrying the gene for T7 RNA polymerase under control of isopropyl β-D-1-thiogalactopyranoside (IPTG)-inducible lacUV5 promotor were transformed with respective expression libraries, and plated onto large square Q-trays. Individual colonies were robotically picked (QPix2^xt, Genetix) into suitable 384 well plates containing liquid LB medium supplemented with 100 μg/ml ampicillin, and cultivated overnight at 37 °C. Alternative route was to directly split appropriately diluted (as confirmed by plating onto LB-amp agar plates) transformation reactions (after 1 h recovery in antibiotics-free SOC medium) into 384 well plates via a programmable Flexdrop Precision Reagent Dispenser (Perkin Elmer). The next day, clones were robotically arrayed onto a 0.45 μm pore size PROTRAN™ nitrocellulose sheet (Whatman) cut in the form of the original masterplate, applying a 1 × 1, 5 × 1, 5 × 5, or 10 × 10 pattern (such that each clone or pool is gridded in 1, 5 or 25 or 100 replicates each). Following a 6 to 8 h incubation interval on top of solid LB at 30 °C, peptide expression was achieved by transferring these membrane-imprinted clones onto LB agar plates supplemented with 1 mM IPTG, followed by a 2 h incubation interval at 37 °C. Cells were then directly lysed via transfer into a Tris-buffered saline (TBS) solution containing 0.05% Tween-20 and 3% blotting-grade milk powder. Membranes were in refined dot-blot reminiscent procedure challenged with (horseradish peroxidase) HRP- or Europium labeled Streptavidin (in 1:1000 to 1:5000 dilution in TBS-0.05% Tween) for 1 h at RT, washed 3 times in TBS-0.05% Tween, and scanned with either a ChemiDoc imaging system (Quantity One® analysis software, BioRad) after exposure to Immobilon™ Western chemiluminescent substrate (Millipore, Merck), or directly with a prototypic SpectraMax® Paradigm® multi-mode detection Platform (ScanLater™ Western Blot Detection Cartridge, Molecular Devices).
Screening parameters were first of all optimized: signal-to-background ratios and realizable detection limits were assessed by analyzing the associations between published Strep-tagI and II peptides (as well as 12G linker spaced dimer derived thereof) and either commercially available HRP- or fluorescence labeled Streptavidin. […] We next further optimized E. coli growth times (from 0 to 24 h at 2 different temperatures), induction intervals, critical cell densities required, printing conditions, lysis and detection conditions, etc. (Fig. 2).

Experiment [2] has as its target T1, Streptavidin. Set-up: method as in 4 sources, one per row (each row's own in cited_ref): ref see discussion section ([26], [33], [34]) ||| ref [35], [36] = [35]; PMID 26406477; doi:10.1371/journal.pone.0139137; 35. Fogen D Engineering Streptavidin and a Streptavidin-Binding Peptide with Infinite Binding Affinity and Reversible Binding Capability: Purification of a Tagged Recombinant Protein to High Purity vi || [36]; PMID 11722181; doi:10.1006/prep.2001.1515; 36. Keefe AD One-step purification of recombinant proteins using a nanomolar-affinity streptavidin-binding peptide, the SBP-Tag Protein Expr Purif 2001 23 3 440 446 10.1006/prep.2001.1515 11722181 ||| ref [37] = [37]; PMID 14680960; doi:10.1016/j.pep.2003.08.014; 37. Lamla T Erdmann VA The Nano-tag, a streptavidin-binding peptide for the purification and detection of recombinant proteins Protein Expr Purif 2004 33 1 39 47 10.1016/j.pep.2003.08.014 14680960 ||| ref [26], [33], [34] = [26]; PMID 8636976; doi:10.1006/jmbi.1996.0061; 26. Schmidt TG Molecular interaction between the Strep-tag affinity peptide and its cognate target, streptavidin J Mol Biol 1996 255 5 753 766 10.1006/jmbi.1996.0061 8636976 || [33]; PMID 10796988; doi:10.1016/S1050-3862(99)00033-9; 33. Skerra A Schmidt TG Applications of a peptide ligand for streptavidin: the Strep-tag Biomol Eng 1999 16 1–4 79 86 10.1016/S1050-3862(99)00033-9 10796988 || [34]; PMID 11910031; doi:10.1110/ps.4150102; 34. Korndorfer IP Skerra A Improved affinity of engineered streptavidin for the Strep-tag II peptide is due to a fixed open conformation of the lid-like loop at the binding site Protein Sci 2002 11 4. To be noted: equilibrium dissociation constant; ref [35], [36]; read-out: literature KD of SBP-tag, Streptavidin; cited from earlier work.

Entries after “also recorded” stand apart in the source; their conditions may differ. Where no end group is shown, it is not given here.

T1 sequence (P22629 25-183): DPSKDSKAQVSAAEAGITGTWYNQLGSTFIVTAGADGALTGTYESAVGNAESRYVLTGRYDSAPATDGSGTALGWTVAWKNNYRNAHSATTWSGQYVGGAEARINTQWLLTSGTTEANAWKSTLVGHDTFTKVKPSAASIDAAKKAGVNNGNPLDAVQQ

Regarding “B5 dimer: B5 dimerized, spaced by an analogous 12 glycine linker (VSHPQAPFGGGGGGGGGGGGVSHPQAPF; not fully specified)”, the “effect of dimerisation on chip signal/affinity” value (shortened to “effect … on chip signal/affinity”) in the experiment with Streptavidin [1] is “could not increase affinity by linear dimerization”.

As to “Dim12G: 12 glycine (G) linker spaced dimer resembling a published Twin-conformation; fusion of Strep-tagI and Strep-tagII monomers [reference compound]”, the “effect … on chip signal/affinity” value in the experiment with Streptavidin [1] was “performs superior in comparison to a single monomer”. Further, the “binder strength on test peptide chip” value with Streptavidin [1] (in comparison to negative control, HRP- or fluorescence-labeled Streptavidin) is given as “higher affinity”. “F14.5 dimer: 12G–spaced dimeric F14.5 (CSGSYGSCGGGGGGGGGGGGCSGSYGSC; cysteine pairing not given here; also: fused to GST, end not given here)”: the “effect … on chip signal/affinity” value with Streptavidin [1] is “remained fairly constant; also recorded: could not increase affinity by linear dimerization”. Usually Kd stands for the concentration at which binding is half-saturated. Consider SBP-tag: 38 AA encompassing SBP-tag, for which the Kd in the experiment with Streptavidin [2] was 2.5 nM.
